In the supplement of paper PMC10724198:
± gives the standard deviation of the averaged measurements.

System: Saccharomyces cerevisiae
Assay: protein stability index of tFT-peptide fusion (C-terminal peptide) (PSI (0-1 scale)); higher = more stable (slower turnover)
Conditions: genetic background: wild type; temperature: 30 C
Description: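 Multiplexed protein stability (MPS) profiling in S. cerevisiae. Random 12-aa peptides (tFT-X12 library) are fused to the C-terminus of a sfGFP-mCherry tandem fluorescent timer, after mCherry and a GGGS linker. Cells are FACS-sorted into 8 mCherry/sfGFP bins and deep-sequenced. The protein stability index (PSI) is the read-weighted bin average, scaled from 0 (unstable) to 1 (stable). Only peptides with >10 reads are reported; cells were grown at 30 °C in SC-His with glucose.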
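Note: PSI is a weighted mean of sequencing reads over stability bins, variants kept only with over 10 reads, mCherry proximal and sfGFP distal, peptide attached via GGGS linker.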

Sequence | protein stability index
AAAPWSVSGCPG | 0.6611 ± 0.0049
AACLCATYPVGT | 0.752 ± 0.07
AAGTVFCRITWD | 0.678 ± 0.022
AAIFDSIRKDLR | 0.69 ± 0.039
AAISGELRVWVL | 0.642 ± 0.0081
AAKQIPRYRTTG | 0.716 ± 0.078
AALRLVEDKSTW | 0.71 ± 0.059
AAPAGAAKRWGT | 0.641 ± 0.035
AAPRGRGRFAAA | 0.699 ± 0.024
AARFRAVPVFGN | 0.661 ± 0.037
AARPLGLPSASG | 0.7113 ± 0.0062
AARQRWSLEFLD | 0.65 ± 0.1
AASPPPRISAWL | 0.746 ± 0.02
AATDWFHLPFPP | 0.682 ± 0.15
ACLCLPGVRVGG | 0.625 ± 0.038
ACPDARNAGTQR | 0.708 ± 0.022
ACSPPPLLPPPL | 0.737 ± 0.016
ACSSSLPPSSPP | 0.671 ± 0.0078
ACVPGGFVWGGV | 0.754 ± 0.065
ACYEYRPSPASC | 0.728 ± 0.053
ADENFKVRKRRS | 0.703 ± 0.057
ADQVGRAVIIAS | 0.644 ± 0.0074
ADRVHLNGLEML | 0.747 ± 0.0093
AEEWPVRAGGRG | 0.609 ± 0.056
AEGCHIRVHWGV | 0.7265 ± 0.0066

Sequence | protein stability index
AEGYRGECSGCM | 0.622 ± 0.052
AEVRGTVGRLVG | 0.632 ± 0.011
AFAFSVLTGWGV | 0.638 ± 0.072
AFGAPVVRHATF | 0.723 ± 0.02
AFGFCKVLSSGC | 0.68 ± 0.013
AFLVGYSGVGYV | 0.687 ± 0.032
AFPLPPPPPPKP | 0.708 ± 0.012
AFPPDVPPLTPL | 0.72 ± 0.1
AFRGFLSVNFNL | 0.7338 ± 0.005
AFSYRAVIALLP | 0.683 ± 0.018
AFVLGSWSWWRA | 0.715 ± 0.015
AGAGEHCDGVVG | 0.641 ± 0.0096
AGAGGGGWWGGV | 0.76 ± 0.054
AGAGGGQGKGRE | 0.639 ± 0.019
AGALYGNPCPPL | 0.657 ± 0.019
AGARLEWVVAGR | 0.7539 ± 0.0045
AGCRFRWHTVDC | 0.648 ± 0.073
AGGAGWGLVLGC | 0.647 ± 0.082
AGGGGGDAGRGV | 0.744 ± 0.078
AGGGRRRLDGGR | 0.703 ± 0.0086
AGGRGGGLGLWC | 0.724 ± 0.1
AGIDYLSVGGSL | 0.728 ± 0.074
AGLDRFLVIWGI | 0.6106 ± 0.0061
AGLLGVVGGRFG | 0.6993 ± 0.00076
AGLRMALGVGIP | 0.6975 ± 0.0065

Sequence | protein stability index
AGRGGTGIGERV | 0.63 ± 0.072
AGRTGVLGGHVP | 0.691 ± 0.0095
AGRVGRRGPPNR | 0.629 ± 0.038
AGSLPLLYPSLR | 0.745 ± 0.015
AGSSGGGAWWGE | 0.681 ± 0.12
AGSSLVVAWHGV | 0.673 ± 0.028
AGTALVFNGSKA | 0.7209 ± 0.0045
AGVVARTRRDGG | 0.708 ± 0.035
AGVVGRMGWGAT | 0.707 ± 0.041
AHEAHPITPRGP | 0.695 ± 0.042
AHFQDSTSPATI | 0.722 ± 0.017
AHGASGNRSHNQ | 0.644 ± 0.037
AHPPPPPPPPAP | 0.677 ± 0.14
AHPPPSPPFPRH | 0.658 ± 0.015
AHQEAIIPTIGK | 0.694 ± 0.087
AHVYGCGGGGMT | 0.734 ± 0.055
AHWYPAGQCSRL | 0.804 ± 0.13
AICSVRSGITLS | 0.6529 ± 0.0019
AIGPLTCFFAFL | 0.695 ± 0.079
AIILGPPIGWTK | 0.757 ± 0.026
AILGYFSLVEPP | 0.542 ± 0.013
AIPRPPRVWGHL | 0.727 ± 0.016
AISVISNLTKLE | 0.617 ± 0.034
AIVASAPSLGRS | 0.658 ± 0.038
AKDSSPTFTSPH | 0.673 ± 0.032

Sequence | protein stability index
AKDSTAVVRLGT | 0.703 ± 0.029
AKKTKSRANSDL | 0.701 ± 0.085
AKRKEAGKPHAN | 0.695 ± 0.085
AKRQRQQKKDKG | 0.626 ± 0.014
AKSSLGSSYKTL | 0.761 ± 0.064
AKYPLTRCLFGS | 0.705 ± 0.033
ALASPPPTPSLV | 0.638 ± 0.0068
ALEFRDASLPVQ | 0.682 ± 0.068
ALFVVLSGLSLR | 0.616 ± 0.017
ALGGKDQSRSSS | 0.699 ± 0.019
ALLGGQLVWNSK | 0.667 ± 0.14
ALLLPFPPPPPP | 0.559 ± 0.03
ALLLSHFLFFYA | 0.524 ± 0.028
ALLSRFFPAFFF | 0.604 ± 0.021
ALPLPAPSSIPS | 0.712 ± 0.029
ALPNPLLPPAPP | 0.612 ± 0.026
ALPPGSRPLIPS | 0.628 ± 0.024
ALPRFPATSFPT | 0.695 ± 0.04
ALPRPPSPFSPL | 0.666 ± 0.078
ALRGRTTPPSHT | 0.726 ± 0.086
ALSEAITLPVNP | 0.674 ± 0.085
ALVPPDPTPPPP | 0.699 ± 0.047
ALVQAAPPGRTP | 0.6864 ± 0.0049
ALVTLRRVVDLV | 0.601 ± 0.08
AMGILSHLTACW | 0.659 ± 0.048

Sequence | protein stability index
ANKIRMKYMRTG | 0.6139 ± 0.0027
ANKKKKKIKTKH | 0.757 ± 0.12
ANSRPASSTRLR | 0.857 ± 0.2
APAWSFFGLDKS | 0.702 ± 0.015
APEGGEAQVLPA | 0.6842 ± 0.0022
APFAPRRPLPPP | 0.612 ± 0.094
APFRHKANEPGE | 0.706 ± 0.037
APIQPGEDKLKR | 0.64 ± 0.0099
APIQPRAPPRAP | 0.669 ± 0.017
APIRRPTCLSEV | 0.708 ± 0.043
APIWRSLRGLAI | 0.555 ± 0.18
APLTVLTARSLF | 0.763 ± 0.055
APNPPPPPPPLP | 0.729 ± 0.03
APPFNPSRLSRP | 0.725 ± 0.066
APPPLPPPTLPT | 0.757 ± 0.041
APPPNPPRPSSR | 0.754 ± 0.032
APPPPAVPHYRP | 0.667 ± 0.012
APPPPHPRTPKP | 0.693 ± 0.069
APPPPPFPPPCA | 0.694 ± 0.049
APPPPPPAPPLP | 0.591 ± 0.028
APPPPPPFPPLP | 0.684 ± 0.093
APPPPPRISAWL | 0.745 ± 0.012
APPPPPVHPSSP | 0.734 ± 0.011
APPPPTPPPPPA | 0.7 ± 0.019
APPSPTSPPTPP | 0.642 ± 0.1

Sequence | protein stability index
APRKTPPHPPPS | 0.689 ± 0.06
APRPSNRRPRPR | 0.629 ± 0.025
APRRSPGWGPEG | 0.731 ± 0.083
APSEPVIYLPRV | 0.746 ± 0.14
APSINVQVYWSG | 0.649 ± 0.041
APSPPFLPLTLT | 0.656 ± 0.035
APSPPTRYLPLF | 0.684 ± 0.019
APSSPPPPTLPP | 0.716 ± 0.17
APVGYNTVASAC | 0.685 ± 0.042
APVVSFTAPLAF | 0.619 ± 0.1
AQERDGAIKKTH | 0.7 ± 0.033
AQLPRSFAPPLR | 0.868 ± 0.19
AQRRHGRSIRRD | 0.787 ± 0.019
AQSYPHPPPPPP | 0.644 ± 0.041
ARACPLCFVMMF | 0.559 ± 0.013
ARCGNSAPWHVG | 0.693 ± 0.019
ARFYPPLPTDSL | 0.708 ± 0.056
ARGAPVSGRAGG | 0.6574 ± 0.005
ARGDDGSTCSRG | 0.697 ± 0.059
ARGGGPERIHPE | 0.66362 ± 0.00048
ARGIVAHKVTQP | 0.65 ± 0.11
ARHESRPTHSAQ | 0.6924 ± 0.0046
ARNMGLFVFNLR | 0.6783 ± 0.0043
ARPAPHRSRRPS | 0.68 ± 0.013
ARPAPPLPAIPL | 0.663 ± 0.043

Sequence | protein stability index
ARPPRASRISSL | 0.81 ± 0.044
ARRGATRGHAHV | 0.684 ± 0.046
ARSAGITSPSKD | 0.788 ± 0.12
ARSPLTIGLYPF | 0.6915 ± 0.0016
ARSSHVLQRSKV | 0.634 ± 0.018
ARVLVLMNGVCV | 0.592 ± 0.032
ASCLSPPSPFPR | 0.653 ± 0.013
ASLDTALVHITL | 0.622 ± 0.0064
ASLIGHLKATSP | 0.672 ± 0.014
ASLLLVFSPPIS | 0.703 ± 0.043
ASNEPQRQELGS | 0.693 ± 0.018
ASPSAPPRPPTP | 0.697 ± 0.013
ASRADSALGITV | 0.727 ± 0.055
ASRSGVPGVRVG | 0.685 ± 0.027
ASRYPVPLQPHH | 0.6982 ± 0.0044
ASSFEGVWCTGC | 0.721 ± 0.0093
ASSGGCVPTLPL | 0.68 ± 0.0078
ASSLKSTQVSGV | 0.72769 ± 0.00011
ASSMLPVCLVTL | 0.588 ± 0.056
ASSPSLSSPPTL | 0.7106 ± 0.0051
ASSVLLIAQLQS | 0.619 ± 0.0054
ATDCHVYRPPDL | 0.6941 ± 0.0013
ATHEEGRVRCGV | 0.709 ± 0.078
ATIRSSQGFKIY | 0.612 ± 0.013
ATIYTAATTYHV | 0.71342 ± 0.00066

Sequence | protein stability index
ATPNRSKNKHDT | 0.679 ± 0.0011
ATRSTLHDSMVS | 0.714 ± 0.059
ATSPPGLLAQPA | 0.663 ± 0.0017
ATTQLPPPGGMC | 0.695 ± 0.024
ATYNRPPPPGLD | 0.682 ± 0.068
ATYTTQQLPNYH | 0.685 ± 0.011
AVCLLRLDRSRA | 0.665 ± 0.027
AVERGGRGRVVG | 0.639 ± 0.04
AVFLGGLLVSRW | 0.682 ± 0.24
AVGFVVHNSLKK | 0.739 ± 0.017
AVGGGGRLMCGV | 0.645 ± 0.053
AVGGGVVGQGWV | 0.604 ± 0.012
AVGGWRAGGGGG | 0.731 ± 0.04
AVLRVCHVEVVP | 0.634 ± 0.031
AVNFESSHPICA | 0.58 ± 0.0073
AVPPQLAPPRPL | 0.679 ± 0.037
AVPSGLPLMFPR | 0.662 ± 0.045
AVSAGQASPGRA | 0.681 ± 0.061
AVSLWAIFPLYT | 0.611 ± 0.015
AVVVCGGGWWWA | 0.746 ± 0.094
AWCLGVGESRPH | 0.739 ± 0.035
